B1: Protein XRP2 (Homo sapiens), O75695 (parent)
chain: MGCFFSKRRKADKESRPENEEERPKQYSWDQREKVDPKDYMFSGLKDETVGRLPGTVAGQQFLIQDCENCNIYIFDHSATVTIDDCTNCIIFLGPVKGSVFFRNCRDCKCTLACQQFRVRDCRKLEVFLCCATQPIIESSSNIKFGCFQWYYPELAFQFKDAGLSIFNNTWSNIHDFTPVSGELNWSLLPEDAVVQDYVPIPTTEELKAVRVSTEANRSIVPISRGQRQKSSDESCLVVLFAGDYTIANARKLIDEMVGKGFFLVQTKEVSMKAEDAQRVFREKAPDFLPLLNKGPVIALEFNGDGAVEVCQLIVNEIFNGTKMFVSESKETASGDVDSFYNFADIQMGI

Variants of: B1
Details: with arl3_mouse Arl3, Q9WUL7
Chain of arl3_mouse Arl3, Q9WUL7 (Q9WUL7 whole entry): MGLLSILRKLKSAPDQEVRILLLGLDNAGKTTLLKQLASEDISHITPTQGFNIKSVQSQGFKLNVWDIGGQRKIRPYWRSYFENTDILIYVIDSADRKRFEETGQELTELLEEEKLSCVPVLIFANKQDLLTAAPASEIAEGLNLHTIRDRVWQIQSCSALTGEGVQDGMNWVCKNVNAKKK

| effect of a mutation on the interaction | Variant |
| --- | --- |
| decreasing interaction | MGCFFSKRRKADKESRPENEEERPKQYSWDQREKVDPKDYMFSGLKDETVGRLPGTVAGQQFLIQDCENCNIYIFDHSATVTIDDCTNCIIFLGPVKGSVFFRNCRDCKCTLACQQFRVRDCRKLEVFLCCATQPIIESSSNIKFGCFQWYYPELAFQFKDAGLSIFNNTWSNIHDATPVSGELNWSLLPEDAVVQDYVPIPTTEELKAVRVSTEANRSIVPISRGQRQKSSDESCLVVLFAGDYTIANARKLIDEMVGKGFFLVQTKEVSMKAEDAQRVFREKAPDFLPLLNKGPVIALEFNGDGAVEVCQLIVNEIFNGTKMFVSESKETASGDVDSFYNFADIQMGI [F177A] |
| decreasing interaction | MGCFFSKRRKADKESRPENEEERPKQYSWDQREKVDPKDYMFSGLKDETVGRLPGTVAGQQFLIQDCENCNIYIFDHSATVTIDDCTNCIIFLGPVKGSVFFRNCRDCKCTLACQQFRVRDCRKLEVFLCCATQPIIGSSSNIKFGCFQWYYPELAFQFKDAGLSIFNNTWSNIHDFTPVSGELNWSLLPEDAVVQDYVPIPTTEELKAVRVSTEANRSIVPISRGQRQKSSDESCLVVLFAGDYTIANARKLIDEMVGKGFFLVQTKEVSMKAEDAQRVFREKAPDFLPLLNKGPVIALEFNGDGAVEVCQLIVNEIFNGTKMFVSESKETASGDVDSFYNFADIQMGI [E138G] |

Further lines, the variant ahead of its results:

| Variant | effect of a mutation on the interaction |
| --- | --- |
| MGCFFSKRRKADKESRPENEEERPKQYSWDQREKVDPKDYMFSGLKDETVGRLPGTVAGQQFLIQDCENCNIYIFDHSATVTIDDCTNCIIFLGPVKGSVFFRNCRDCKCTLACQQFAVRDCRKLEVFLCCATQPIIESSSNIKFGCFQWYYPELAFQFKDAGLSIFNNTWSNIHDFTPVSGELNWSLLPEDAVVQDYVPIPTTEELKAVRVSTEANRSIVPISRGQRQKSSDESCLVVLFAGDYTIANARKLIDEMVGKGFFLVQTKEVSMKAEDAQRVFREKAPDFLPLLNKGPVIALEFNGDGAVEVCQLIVNEIFNGTKMFVSESKETASGDVDSFYNFADIQMGI [R118A] | decreasing interaction |
| MGCFFSKRRKADKESRPENEEERPKQYSWDQREKVDPKDYMFSGLKDETVGRLPGTVAGQQFLIQDCENCNIYIFDHSATVTIDDCTNCIIFLGPVKGSVFFRNCRDCKCTLACQAFRVRDCRKLEVFLCCATQPIIESSSNIKFGCFQWYYPELAFQFKDAGLSIFNNTWSNIHDFTPVSGELNWSLLPEDAVVQDYVPIPTTEELKAVRVSTEANRSIVPISRGQRQKSSDESCLVVLFAGDYTIANARKLIDEMVGKGFFLVQTKEVSMKAEDAQRVFREKAPDFLPLLNKGPVIALEFNGDGAVEVCQLIVNEIFNGTKMFVSESKETASGDVDSFYNFADIQMGI [Q116A] | decreasing interaction |

Variants of: B1
Details: with arl3_mouse Arl3, Q9WUL7
Remark: another data set of the same source

| effect of a mutation on the interaction | Variant |
| --- | --- |
| decreasing interaction | MGCFFSKRRKADKESRPENEEERPKQYSWDQREKVDPKDYMFSGLKDETVGRLPGTVAGQQFLIQDCENCNIYIFDHSATVTIDDCTNCIIFLGPVKGSVFFRNCRDCKCTLACQQFHVRDCRKLEVFLCCATQPIIESSSNIKFGCFQWYYPELAFQFKDAGLSIFNNTWSNIHDFTPVSGELNWSLLPEDAVVQDYVPIPTTEELKAVRVSTEANRSIVPISRGQRQKSSDESCLVVLFAGDYTIANARKLIDEMVGKGFFLVQTKEVSMKAEDAQRVFREKAPDFLPLLNKGPVIALEFNGDGAVEVCQLIVNEIFNGTKMFVSESKETASGDVDSFYNFADIQMGI [R118H] |
| decreasing interaction | MGCFFSKRRKADKESRPENEEERPKQYSWDQREKVDPKDYMFSGLKDETVGRLPGTVAGQQFLIQDCENCNIYIFDHSATVTIDDCTNCIIFLGPVKGSVFFRNCRDCKCTLACQQFRVHSCRKLEVFLCCATQPIIESSSNIKFGCFQWYYPELAFQFKDAGLSIFNNTWSNIHDFTPVSGELNWSLLPEDAVVQDYVPIPTTEELKAVRVSTEANRSIVPISRGQRQKSSDESCLVVLFAGDYTIANARKLIDEMVGKGFFLVQTKEVSMKAEDAQRVFREKAPDFLPLLNKGPVIALEFNGDGAVEVCQLIVNEIFNGTKMFVSESKETASGDVDSFYNFADIQMGI [R120H;D121S] |
| decreasing interaction | MGCFFSKRRKADKESRPENEEERPKQYAADQREKVDPKDYMFSGLKDETVGRLPGTVAGQQFLIQDCENCNIYIFDHSATVTIDDCTNCIIFLGPVKGSVFFRNCRDCKCTLACQQFRVRDCRKLEVFLCCATQPIIESSSNIKFGCFQWYYPELAFQFKDAGLSIFNNTWSNIHDFTPVSGELNWSLLPEDAVVQDYVPIPTTEELKAVRVSTEANRSIVPISRGQRQKSSDESCLVVLFAGDYTIANARKLIDEMVGKGFFLVQTKEVSMKAEDAQRVFREKAPDFLPLLNKGPVIALEFNGDGAVEVCQLIVNEIFNGTKMFVSESKETASGDVDSFYNFADIQMGI [S28A;W29A] |
| decreasing interaction | MGCFFSKRRKADKESRPENEEERPKQYSWDQREKVDPKDYMFSGLKDETVGRLPGTVAGQQFLIQDCENCNIYIFDHSATVTIDDCTNCIIFLGPVKGSVFFRNCRDCKCTLACAQFRVRDCRKLEVFLCCATQPIIESSSNIKFGCFQWYYPELAFQFKDAGLSIFNNTWSNIHDFTPVSGELNWSLLPEDAVVQDYVPIPTTEELKAVRVSTEANRSIVPISRGQRQKSSDESCLVVLFAGDYTIANARKLIDEMVGKGFFLVQTKEVSMKAEDAQRVFREKAPDFLPLLNKGPVIALEFNGDGAVEVCQLIVNEIFNGTKMFVSESKETASGDVDSFYNFADIQMGI [Q115A] |

Source: IntAct's records for PubMed 18376416
